Values quoted from earlier work in article PMC7092810.

Molecular target: Cyclophilin A (Homo sapiens) (UniProt P62937)
Sequence (P62937 whole entry): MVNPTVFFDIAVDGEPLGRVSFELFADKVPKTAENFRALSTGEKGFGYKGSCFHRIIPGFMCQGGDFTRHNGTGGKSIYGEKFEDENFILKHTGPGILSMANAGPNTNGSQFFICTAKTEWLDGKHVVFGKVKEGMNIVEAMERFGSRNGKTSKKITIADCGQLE

Chain of HIV-1 capsid protein CA (O93182 133-363): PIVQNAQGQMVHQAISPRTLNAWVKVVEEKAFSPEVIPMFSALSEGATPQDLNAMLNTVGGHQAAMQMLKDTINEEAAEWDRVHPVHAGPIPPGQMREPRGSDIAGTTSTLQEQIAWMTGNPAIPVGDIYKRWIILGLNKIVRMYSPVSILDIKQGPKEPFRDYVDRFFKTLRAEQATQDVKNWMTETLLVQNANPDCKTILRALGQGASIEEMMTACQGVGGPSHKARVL

## HIV-1 capsid protein CA (from UniProt O93182)
  Kd: 16 µM
